Measurements: patent US7449553B2, “Antibody that binds ceramidase” (Takara Bio Inc., priority 1999, dated 2008)
“Also recorded” adds a separate entry of the source.

Assay: Temperature stability of the ceramidase
Format: physicochemical
Settings: 20 mM Tris-HCl pH 7.5, 0.1% polidocanol (Lubrol PX)
Experimental: The activity of the ceramidase can be determined in accordance with the method described, for instance, in J. Biol. Chem., 275, 3462-3468 (2000). Concretely, a reaction mixture prepared by dissolving 550 pmol of 12-((N-(7-nitrobenz-2-oxa-1,3-diazol-4-yl)amino)dodecanoyl)sphingosine, hereinafter referred to as C12-NBD-ceramide [Anal. Biochem., 263, 183-188 (1998)], 1.0% (W/V) sodium cholate and a suitable amount of an enzyme (ceramidase) in 20 μl of 25 mM Tris-hydrochloric acid buffer (pH 7.5) is incubated at 37° C. for 30 minutes. The reaction mixture is incubated in a boiling water bath for 5 minutes, thereby stopping the reaction. The resulting reaction mixture is further evaporated to dryness under reduced pressure. The dried solid is dissolved in chloroform/methanol=2/1 (V/V), and developed by silica gel thin layer chromatography (developing solvent: chloroform/methanol/25% aqueous ammonia=90/20/0.5 (V/V/V)). Thereafter, the 12-(N-7-nitrobenz-2-oxa-1,3-diazol-4-yl)amino)dodecanoyl acid, hereinafter referred to as C12-NBD-fatty acid generated by the above-mentioned reaction is quantified by using CS-9300 Chromatoscanner (manufactured by Shimadzu Corporation) at an excitation wavelength of 475 nm and a fluorescent wavelength 525 nm. […]

B1: ceramidase: isolated and purified neutral/alkaline ceramidase derived from a mouse liver, mature form SEQ ID NO: 14 (protein, listed as Mus sp.)
chain: FSGYYIGVGRADCTGQVSDINLMGYGKNGQNARGLLTRLFSRAFILADPDGSNRMAFVSVELCMISQRLRLEVLKRLESKYGSLYRRDNVILSAIHTHSGPAGFFQYTLYILASEGFSNRTFQYIVSGIMKSIDIAHTNLKPGKIFINKGNVANVQINRSPSSYLLNPQSERARYSSNTDKEMLVLKLVDLNGEDLGLISWFAIHPVSMNNSNHFVNSDNMGYAAYLFEQEKNKGYLPGQGPFVAGFASSNLGDVSPNILGPHCVNTGESCDNDKSTCPNGGPSMCMASGPGQDMFESTHIIGRIIYQKAKELYASASQEVTGPVLAAHQWVNMTDVSVQLNATHTVKTCKPALGYSFAAGTIDGVSGLNITQGTTEGDPFWDTLRDQLLGKPSEEIVECQKPKPILLHSGELTIPHPWQPDIVDVQIVTVGSLAIAAIPGELTTMSGRRFREAIKKEFALYGMKDMTVVIAGLSNVYTHYITTYEEYQAQRYEAASTIYGPHTLSAYIQLFRDLAKAIATDTVANMSSGPEPPFFKNLIASLIPNIADRAPIGKHFGDVLQPAKPEYRVGEVVEVIFVGANPKNSAENQTHQTFLTVEKYEDSVADWQIMYNDASWETRFYWHKGILGLSNATIYWHIPDTAYPGIYRIRYFGHNRKQELLKPAVILAFEGISSPFEVVTT
Activity after treatment at 37° C. for 24 hours: reduced activity not being observed; also recorded: does not show the reduced activity
Activity after treatment at 60° C. for 1 hour, relative to activity before the treatment: about 30%
